According to patent US20260167959A1, “APTAZYME-BASED REGULATABLE GENE EXPRESSION SYSTEMS” (REJUVENATE BIO INC, priority 2022, published 2026):

B1: RA207 (nucleic acid)
DNA: GCGCGTCCTGGATTCGCGGAAACGCGTACATCCAGCTGACGAGTCCCAAGAGAATACCAGCATCGTCTTGATGCCCTTGGAAGTCTCATAGGACGAAACGCGC
modifications: expressed or natural sequence
B2: RA212 (nucleic acid)
DNA: GCGCGTCCTGGATTCAGAATACCAGCATCGTCTTGATGCCCTTGGAAGTCTGCGGAAACGCGTACATCCAGCTGACGAGTCCCAAATAGGACGAAACGCGC
modifications: expressed or natural sequence
B3: RA209 (nucleic acid)
DNA: GCGCGTCCTGGATTCGCGGAGAGAATACCAGCATCGTCTTGATGCCCTTGGAAGTCTCAACGCGTACATCCAGCTGACGAGTCCCAAATAGGACGAAACGCGC
modifications: expressed or natural sequence
B4: RA208 (nucleic acid)
DNA: GCGCGTCCTGGATTCGCGGAAACGCGTACATCCAGCTGACGAGTCCCAAACCGGAATACCAGCATCGTCTTGATGCCCTTGGAAGTCCGGTAGGACGAAACGCGC
modifications: expressed or natural sequence
B5: RA020 (nucleic acid)
DNA: GCGCGTCCTGGATTCGCGGAAACGCGTACATCGGAATACCAGCATCGTCTTGATGCCCTTGGAAGTCCGCCAGCTGACGAGTCCCAAATAGGACGAAACGCGC
modifications: expressed or natural sequence
B6: RA205 (nucleic acid)
DNA: GCGCGTCCTGGATTCGCGGAAACGCGTACATCCAGCTGACGAGTCCCAAATAGGACGAAACGCGGAATACCAGCATCGTCTTGATGCCCTTGGAAGTCCGC
modifications: expressed or natural sequence
B7: RA206 (nucleic acid)
DNA: GCGCGTCCTGGATTCGCCGGAATACCAGCATCGTCTTGATGCCCTTGGAAGTCCGGCGGAAACGCGTACATCCAGCTGACGAGTCCCAAATAGGACGAAACGCGC
modifications: expressed or natural sequence
B8: RA202 (nucleic acid)
DNA: GCGCGTCCTGGATAGTGATACCAGCATCGTCTTGATGCCCTTGGCAGCACTTCGCGGAAACGCGTACATCCAGCTGACGAGTCCCAAATAGGACGAAACGCGC
modifications: expressed or natural sequence
B9: RA211 (nucleic acid)
DNA: GCGCGTCCTGGATTCGGGAATACCAGCATCGTCTTGATGCCCTTGGAAGTCCCGGAAACGCGTACATCCAGCTGACGAGTCCCAAATAGGACGAAACGCGC
modifications: expressed or natural sequence
B10: RA204 (nucleic acid)
DNA: GCGCGTCCCGGAATACCAGCATCGTCTTGATGCCCTTGGAAGTCCGTGGATTCGCGGAAACGCGTACATCCAGCTGACGAGTCCCAAATAGGACGAAACGCGC
modifications: expressed or natural sequence
B11: RA203 (nucleic acid)
DNA: GCGCGTCCTGGATTCGCGGAAACGCGTACATCCAGCTGACGAGTCCCAAATAGGAAGAATACCAGCATCGTCTTGATGCCCTTGGAAGTCTCGAAACGCGC
modifications: expressed or natural sequence

System: Renilla luciferase RNA
Assay: Barcoded aptazyme variant library screen: un-cleaved Renilla luciferase RNA by barcode read counts, HEK293-T cells
Format: cell-based
Settings: un-cleaved Renilla luciferase RNA, HEK293-T cells cultured with 1 mM theophylline (ON) over without theophylline (OFF); barcode read counts, triplicate
Outline: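 Aptazyme variants (seven theophylline aptamers inserted after each T3H48 ribozyme nucleotide, 9-nt barcoded) cloned into the 3′ UTR of Renilla luciferase in psiCHECK-2; cells cultured ± theophylline, in triplicate. RNA and DNA barcodes amplified and sequenced; normalized read counts gave un-cleaved RNA fraction and ON/OFF fold-change.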

Molecule | Fold change in RNA expression between the ON state and the OFF state
B1 | 1.2 fold
B2 | 1.2 fold
B3 | 1.2 fold
B4 | 1.2 fold
B5 | 2.7 fold
B6 | 1.2 fold
B7 | 1.2 fold
B8 | 1.2 fold
B9 | 1.2 fold
B10 | 1.2 fold
B11 | 1.2 fold
